From patent US20140287471A1, “VARIANT CBH I POLYPEPTIDES WITH REDUCED PRODUCT INHIBITION” (BP CORPORATION NORTN AMERICA INC., priority 2011, published 2014)
Like-named read-outs stand apart in the source and are kept apart here.

How the values were obtained:
[1] = 4-MUL cellobiose tolerance/inhibition assay, dose-response IC50 (Example 2); type: biochemical; details: for synergy of double mutant (measured vs expected additive IC50): measured versus expected additive IC50
Method in brief: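 CBH I variant supernatants (5 μg/mL final, or undiluted if lower) on 0.5 mM 4-MUL in 100 mM MES pH 6 with 25 mM gluconolactone, fluorescence ex/em 365/450 nm. Activity measured at 6–8 cellobiose levels up to 100 mM; IC50 from four-parameter fit, bottom constrained to knockout background.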

[2] = 4-MUL assay, specific activity (Example 2); type: biochemical; details: for 268— Measured Specific Activity (SA) / 268— Δ SA* (change in specific activity; ratio of variant: WT): 268 single substitution; for 411— Measured Specific Activity (SA) / 411— Δ SA* (change in specific activity; ratio of variant: WT): 411 single substitution; for 268A+411— Measured Specific Activity (SA) / 268A+411— Δ SA* (change in specific activity; ratio of variant: WT): double mutant 268A+411X
Method in brief: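 CBH I variant supernatants (5 μg/mL final) hydrolysed 0.5 mM 4-MUL in 100 mM MES pH 6 with 25 mM gluconolactone to block BG, with or without cellobiose. Fluorescence (ex/em 365/450 nm) followed over the first 15 min for initial rates, plus a 1 h endpoint before and after carbonate quench. Specific activity from 4-MU standards and HPLC protein quantification.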

[3] = 268 single substitution, averaged IC50 from Tables 8-11, read-out: 268— Measured (merged IC50)
[4] = 411 single substitution, averaged IC50 from Tables 8-11, read-out: 411— Measured (merged IC50)
[5] = double mutant 268A+411X, averaged IC50 from Tables 8-11, read-out: 268A+411— Measured (merged IC50)
[6] = double mutant 268A+411X, expected IC50 (additive values of single mutations), read-out: 268A+411— Expected IC50

| Molecule | IC50 [1, 4] [mM] | 411— Measured Specific Activity (SA) [2] [μmol 4 MU/min/mg CBH I] | 411— Δ SA* (change in specific activity; ratio of variant: WT) [2] | IC50 [1, 5] [mM] | IC50 [1, 6] [mM] | synergy of double mutant (measured vs expected additive IC50) ([1]; double mutant 268A+411X) | 268A+411— Measured Specific Activity (SA) [2] [μmol 4 MU/min/mg CBH I] | 268A+411— Δ SA* (change in specific activity; ratio of variant: WT) [2] | other results |
| --- | --- | --- | --- | --- | --- | --- | --- | --- | --- |
| 268Ser (protein, UniProt P62694 18-513, looked up, variant R268S) Exoglucanase 1: QSACTLQSETHPPLTWQKCSSGGTCTQQTGSVVIDANWRWTHATNSSTNCYDGNTWSSTLCPDNETCAKNCCLDGAAYASTYGVTTSGNSLSIGFVTQSAQKNVGARLYLMASDTTYQEFTLLGNEFSFDVDVSQLPCGLNGALYFVSMDADGGVSKYPTNTAGAKYGTGYCDSQCPRDLKFINGQANVEGWEPSSNNANTGIGGHGSCCSEMDIWEANSISEALTPHPCTTVGQEICEGDGCGGTYSDNSYGGTCDPDGCDWNPYRLGNTSFYGPGSSFTLDTTKKLTVVTQFETSGAINRYYVQNGVTFQQPNAELGSYSGNELNDDYCTAEEAEFGGSSFSDKGGLTQFKKATSGGMVLVMSLWDDYYANMLWLDSTYPTNETSSTPGAVRGSCSTSSGVPAQVESQSPNAKVTFSNIKFGPIGSTGNPSGGNPPGGNRGTTTTRRPATTTGSSPGPTQSHYGQCGGIGYSGPTVCASGTTCQVLNPYYSQCL |  |  |  |  |  |  |  |  | IC50 [1, 3]: 0.5 mM; 268— Measured Specific Activity (SA) [2]: 1.85 μmol 4 MU/min/mg CBH I; 268— Δ SA* (change in specific activity; ratio of variant: WT) [2]: 2.4 |
| 411Thr (protein, UniProt P62694 18-513, looked up, variant R411T) Exoglucanase 1: QSACTLQSETHPPLTWQKCSSGGTCTQQTGSVVIDANWRWTHATNSSTNCYDGNTWSSTLCPDNETCAKNCCLDGAAYASTYGVTTSGNSLSIGFVTQSAQKNVGARLYLMASDTTYQEFTLLGNEFSFDVDVSQLPCGLNGALYFVSMDADGGVSKYPTNTAGAKYGTGYCDSQCPRDLKFINGQANVEGWEPSSNNANTGIGGHGSCCSEMDIWEANSISEALTPHPCTTVGQEICEGDGCGGTYSDNRYGGTCDPDGCDWNPYRLGNTSFYGPGSSFTLDTTKKLTVVTQFETSGAINRYYVQNGVTFQQPNAELGSYSGNELNDDYCTAEEAEFGGSSFSDKGGLTQFKKATSGGMVLVMSLWDDYYANMLWLDSTYPTNETSSTPGAVTGSCSTSSGVPAQVESQSPNAKVTFSNIKFGPIGSTGNPSGGNPPGGNRGTTTTRRPATTTGSSPGPTQSHYGQCGGIGYSGPTVCASGTTCQVLNPYYSQCL | 1.97 | 0.48 | 0.6 |  |  |  |  |  |  |
| 411Met (protein, UniProt P62694 18-513, looked up, variant R411M) Exoglucanase 1: QSACTLQSETHPPLTWQKCSSGGTCTQQTGSVVIDANWRWTHATNSSTNCYDGNTWSSTLCPDNETCAKNCCLDGAAYASTYGVTTSGNSLSIGFVTQSAQKNVGARLYLMASDTTYQEFTLLGNEFSFDVDVSQLPCGLNGALYFVSMDADGGVSKYPTNTAGAKYGTGYCDSQCPRDLKFINGQANVEGWEPSSNNANTGIGGHGSCCSEMDIWEANSISEALTPHPCTTVGQEICEGDGCGGTYSDNRYGGTCDPDGCDWNPYRLGNTSFYGPGSSFTLDTTKKLTVVTQFETSGAINRYYVQNGVTFQQPNAELGSYSGNELNDDYCTAEEAEFGGSSFSDKGGLTQFKKATSGGMVLVMSLWDDYYANMLWLDSTYPTNETSSTPGAVMGSCSTSSGVPAQVESQSPNAKVTFSNIKFGPIGSTGNPSGGNPPGGNRGTTTTRRPATTTGSSPGPTQSHYGQCGGIGYSGPTVCASGTTCQVLNPYYSQCL | 3.34 | 0.57 | 0.7 |  |  |  |  |  |  |
| 411Ser (protein, UniProt P62694 18-513, looked up, variant R411S) Exoglucanase 1: QSACTLQSETHPPLTWQKCSSGGTCTQQTGSVVIDANWRWTHATNSSTNCYDGNTWSSTLCPDNETCAKNCCLDGAAYASTYGVTTSGNSLSIGFVTQSAQKNVGARLYLMASDTTYQEFTLLGNEFSFDVDVSQLPCGLNGALYFVSMDADGGVSKYPTNTAGAKYGTGYCDSQCPRDLKFINGQANVEGWEPSSNNANTGIGGHGSCCSEMDIWEANSISEALTPHPCTTVGQEICEGDGCGGTYSDNRYGGTCDPDGCDWNPYRLGNTSFYGPGSSFTLDTTKKLTVVTQFETSGAINRYYVQNGVTFQQPNAELGSYSGNELNDDYCTAEEAEFGGSSFSDKGGLTQFKKATSGGMVLVMSLWDDYYANMLWLDSTYPTNETSSTPGAVSGSCSTSSGVPAQVESQSPNAKVTFSNIKFGPIGSTGNPSGGNPPGGNRGTTTTRRPATTTGSSPGPTQSHYGQCGGIGYSGPTVCASGTTCQVLNPYYSQCL | 0.87 | 0.60 | 0.8 |  |  |  |  |  |  |
| 268A+411Cys (protein, UniProt P62694 18-513, looked up, variant R268A R411C) Exoglucanase 1: QSACTLQSETHPPLTWQKCSSGGTCTQQTGSVVIDANWRWTHATNSSTNCYDGNTWSSTLCPDNETCAKNCCLDGAAYASTYGVTTSGNSLSIGFVTQSAQKNVGARLYLMASDTTYQEFTLLGNEFSFDVDVSQLPCGLNGALYFVSMDADGGVSKYPTNTAGAKYGTGYCDSQCPRDLKFINGQANVEGWEPSSNNANTGIGGHGSCCSEMDIWEANSISEALTPHPCTTVGQEICEGDGCGGTYSDNAYGGTCDPDGCDWNPYRLGNTSFYGPGSSFTLDTTKKLTVVTQFETSGAINRYYVQNGVTFQQPNAELGSYSGNELNDDYCTAEEAEFGGSSFSDKGGLTQFKKATSGGMVLVMSLWDDYYANMLWLDSTYPTNETSSTPGAVCGSCSTSSGVPAQVESQSPNAKVTFSNIKFGPIGSTGNPSGGNPPGGNRGTTTTRRPATTTGSSPGPTQSHYGQCGGIGYSGPTVCASGTTCQVLNPYYSQCL |  |  |  | 10.2 | 1.74 | 5.8 | 1.85 | 2.4 |  |
| 411Gly (protein, UniProt P62694 18-513, looked up, variant R411G) Exoglucanase 1: QSACTLQSETHPPLTWQKCSSGGTCTQQTGSVVIDANWRWTHATNSSTNCYDGNTWSSTLCPDNETCAKNCCLDGAAYASTYGVTTSGNSLSIGFVTQSAQKNVGARLYLMASDTTYQEFTLLGNEFSFDVDVSQLPCGLNGALYFVSMDADGGVSKYPTNTAGAKYGTGYCDSQCPRDLKFINGQANVEGWEPSSNNANTGIGGHGSCCSEMDIWEANSISEALTPHPCTTVGQEICEGDGCGGTYSDNRYGGTCDPDGCDWNPYRLGNTSFYGPGSSFTLDTTKKLTVVTQFETSGAINRYYVQNGVTFQQPNAELGSYSGNELNDDYCTAEEAEFGGSSFSDKGGLTQFKKATSGGMVLVMSLWDDYYANMLWLDSTYPTNETSSTPGAVGGSCSTSSGVPAQVESQSPNAKVTFSNIKFGPIGSTGNPSGGNPPGGNRGTTTTRRPATTTGSSPGPTQSHYGQCGGIGYSGPTVCASGTTCQVLNPYYSQCL | 1.81 | 0.60 | 0.8 |  |  |  |  |  |  |
| 268Cys (protein, UniProt P62694 18-513, looked up, variant R268C) Exoglucanase 1: QSACTLQSETHPPLTWQKCSSGGTCTQQTGSVVIDANWRWTHATNSSTNCYDGNTWSSTLCPDNETCAKNCCLDGAAYASTYGVTTSGNSLSIGFVTQSAQKNVGARLYLMASDTTYQEFTLLGNEFSFDVDVSQLPCGLNGALYFVSMDADGGVSKYPTNTAGAKYGTGYCDSQCPRDLKFINGQANVEGWEPSSNNANTGIGGHGSCCSEMDIWEANSISEALTPHPCTTVGQEICEGDGCGGTYSDNCYGGTCDPDGCDWNPYRLGNTSFYGPGSSFTLDTTKKLTVVTQFETSGAINRYYVQNGVTFQQPNAELGSYSGNELNDDYCTAEEAEFGGSSFSDKGGLTQFKKATSGGMVLVMSLWDDYYANMLWLDSTYPTNETSSTPGAVRGSCSTSSGVPAQVESQSPNAKVTFSNIKFGPIGSTGNPSGGNPPGGNRGTTTTRRPATTTGSSPGPTQSHYGQCGGIGYSGPTVCASGTTCQVLNPYYSQCL |  |  |  |  |  |  |  |  | IC50 [1, 3]: 0.38 mM; 268— Measured Specific Activity (SA) [2]: 1.81 μmol 4 MU/min/mg CBH I; 268— Δ SA* (change in specific activity; ratio of variant: WT) [2]: 2.4 |
| 268A+411Met (protein, UniProt P62694 18-513, looked up, variant R268A R411M) Exoglucanase 1: QSACTLQSETHPPLTWQKCSSGGTCTQQTGSVVIDANWRWTHATNSSTNCYDGNTWSSTLCPDNETCAKNCCLDGAAYASTYGVTTSGNSLSIGFVTQSAQKNVGARLYLMASDTTYQEFTLLGNEFSFDVDVSQLPCGLNGALYFVSMDADGGVSKYPTNTAGAKYGTGYCDSQCPRDLKFINGQANVEGWEPSSNNANTGIGGHGSCCSEMDIWEANSISEALTPHPCTTVGQEICEGDGCGGTYSDNAYGGTCDPDGCDWNPYRLGNTSFYGPGSSFTLDTTKKLTVVTQFETSGAINRYYVQNGVTFQQPNAELGSYSGNELNDDYCTAEEAEFGGSSFSDKGGLTQFKKATSGGMVLVMSLWDDYYANMLWLDSTYPTNETSSTPGAVMGSCSTSSGVPAQVESQSPNAKVTFSNIKFGPIGSTGNPSGGNPPGGNRGTTTTRRPATTTGSSPGPTQSHYGQCGGIGYSGPTVCASGTTCQVLNPYYSQCL |  |  |  | 11.7 | 3.91 | 3.0 | 1.78 | 2.3 |  |
| 268A+411Thr (protein, UniProt P62694 18-513, looked up, variant R268A R411T) Exoglucanase 1: QSACTLQSETHPPLTWQKCSSGGTCTQQTGSVVIDANWRWTHATNSSTNCYDGNTWSSTLCPDNETCAKNCCLDGAAYASTYGVTTSGNSLSIGFVTQSAQKNVGARLYLMASDTTYQEFTLLGNEFSFDVDVSQLPCGLNGALYFVSMDADGGVSKYPTNTAGAKYGTGYCDSQCPRDLKFINGQANVEGWEPSSNNANTGIGGHGSCCSEMDIWEANSISEALTPHPCTTVGQEICEGDGCGGTYSDNAYGGTCDPDGCDWNPYRLGNTSFYGPGSSFTLDTTKKLTVVTQFETSGAINRYYVQNGVTFQQPNAELGSYSGNELNDDYCTAEEAEFGGSSFSDKGGLTQFKKATSGGMVLVMSLWDDYYANMLWLDSTYPTNETSSTPGAVTGSCSTSSGVPAQVESQSPNAKVTFSNIKFGPIGSTGNPSGGNPPGGNRGTTTTRRPATTTGSSPGPTQSHYGQCGGIGYSGPTVCASGTTCQVLNPYYSQCL |  |  |  | 11.7 | 2.54 | 4.6 | 1.78 | 2.3 |  |
